Test results reported in patent EP4218932A2 (GammaDelta Therapeutics Limited, dated 2023).
Residue numbers refer to the chain shown, from its start.

B1: 1139_P01_E04 (antibody, human IgG1, V domains shown)
VH: QVQLQQSGPGLVKPSQTLSLTCAISGDSVSSNSAAWNWIRQSPSRGLEWLGRTYYRSKWYNDYAVSVRSRITINPDTSKNQFSLQLNSVTPEDTAVYYCARSWNDAFDIWGQGTTVTVSS
VL: DIVMTQSPSTLSASIGDRVTITCRAGQSISTWLAWYQQKPGKAPKLLIYDASSLESGVPLRFSGSGSGTDFTLTISSLQPEDFATYYCQQSYSTPLTFGGGTKVEIK
B2: 1245_P01_G09 (antibody, human IgG1, V domains shown)
VH: QVQLQQSGPGLVKPSQTLSLTCAISGDSVSSNSAAWNWIRQSPSRGLEWLGRTYYGSKWYNEYALSVKSRIIINPDTSKNQFSLQLNSVTPEDTAVYYCARDYYYSMDVWGQGTLVTVSS
VL: B1 VL with D70E, T74A, E81D, L96V, G100Q
B3: 1245_P01_G06 (antibody, V domains shown)
VH: QVQLVESGGGLVKPGGSLRLSCAASGFTFSDYYMSWIRQAPGKGLEWVSYISSSGSTIYYADSVKGRFTISRDNAKNSLYLQMNSLRAEDTAVYYCARHSWNDAFDVWGQGTLVTVSS
VL: not shown
B4: 1245_P01_E07 (antibody, human IgG1, V domains shown)
VH: B3 VH with H99V, S100D, W101Y, N102A, V107I
VL: DIQMTQSPSSLSASVGDRVTIACRAGQSIGTYLNWYQQKPGKAPKLLIYVASSLQSGVPSRFSGSGSGTEFTLTISSLQPEDFATYYCQQSYSTLLTFGRGTKVEIK
B5: 1252_P01_C08 (antibody, human IgG1, V domains shown)
VH: EVQLLESGGGLVQPGRSLRLSCAASGFTVSSNYMSWVRQAPGKGLEWVSVIYSGGSTYYADSVKGRFTISRDNSKNTLYLQMNSLRAEDTAVYYCASPIELGAFDIWGQGTLVTVSS
VL: SSYELTQPPSVSVAPGKTARITCGGNNIGSQSVHWYQQKPGQAPMLVIYYDSDRPSGIPERFSGSNSGNTATLTISRVEAGDEADYYCQVWDSSSDHVVFGGGTKLTVL
B6: 1245_P02_G04 (antibody, human IgG1, V domains shown)
VH: QVQLQQSGPGLVKPSQTLSLTCAISGDSVSSKSAAWNWIRQSPSRGLEWLGRTYYRSKWSTDYAASVKSRITINPDTSKNQLSLQLNSVTPEDTAVYYCARTWSGYVDVWGQGTLVTVSS
VL: DIQMTQSPPALSASVGDRVTITCRASQDINDWLAWYQHKPGKAPKLLIYDASSLESGVPSRFSGSGSGTEFTLTISSLQPDDFATYYCQQSYSTPQVTFGQGTRLEIK

Molecular target: Vδ1 chain of the γδ TCR on Vδ1+ γδ T cells (human)
Assay: cell-based or functional assay

| Binder | T cell degranulation (EC50 µg/ml - 3 donors) [µg/mL] | Killing assay (EC50 µg/ml - 2 or 3 donors) [µg/mL] |
| --- | --- | --- |
| B1 | 0.005 |  |
| B2 | 0.001 |  |
| B3 | 0.001 |  |
| B4 |  | 0.06 |
| B5 |  | 0.02 |
| B6 | 0.002 | 0.1 |
